Assay results reported in patent publication US20150073033A1 (University of Texas, published 2015).
Each block holds one binder with its values, some of them ahead of it.

Tests used:
[1] = target: T1, purified recombinant GST-Bub1 (UniProt O43683 1-1085, limits assumed); test: GST pull-down, purified recombinant proteins
T1 construct: Bacterially purified; not shown: GST
Experimental: Nuclei were stained with DAPI (blue). […] A GST pull-down assay was performed.

[2] = target: T2, endogenous IKKβ (U87/EGFR or U251 cells) (human, UniProt O14920 1-756); test: IP of PKCζ, anti-IKKβ immunoblot, EGF-treated cells
T2 sequence (looked up): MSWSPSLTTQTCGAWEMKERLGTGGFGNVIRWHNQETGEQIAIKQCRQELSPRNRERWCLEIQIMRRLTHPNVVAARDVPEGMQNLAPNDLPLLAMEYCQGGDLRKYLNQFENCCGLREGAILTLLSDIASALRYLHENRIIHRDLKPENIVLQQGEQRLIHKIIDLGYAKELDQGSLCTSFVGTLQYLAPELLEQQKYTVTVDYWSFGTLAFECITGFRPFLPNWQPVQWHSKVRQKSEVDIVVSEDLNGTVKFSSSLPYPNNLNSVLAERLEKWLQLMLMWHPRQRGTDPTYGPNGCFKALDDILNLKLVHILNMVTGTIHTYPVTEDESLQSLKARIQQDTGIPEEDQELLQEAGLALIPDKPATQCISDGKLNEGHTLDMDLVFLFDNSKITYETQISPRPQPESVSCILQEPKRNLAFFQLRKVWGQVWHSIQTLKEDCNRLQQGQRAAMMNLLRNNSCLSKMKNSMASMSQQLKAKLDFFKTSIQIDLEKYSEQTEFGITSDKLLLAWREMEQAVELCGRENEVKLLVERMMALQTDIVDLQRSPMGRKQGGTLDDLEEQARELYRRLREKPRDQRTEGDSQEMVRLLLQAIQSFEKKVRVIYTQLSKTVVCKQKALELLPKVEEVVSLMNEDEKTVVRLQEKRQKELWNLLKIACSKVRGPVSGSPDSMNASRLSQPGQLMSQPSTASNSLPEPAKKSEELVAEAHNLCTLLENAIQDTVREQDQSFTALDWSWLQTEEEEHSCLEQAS

[3] = target: endogenous Bub1 (human, UniProt O43683 1-1085); test: co-IP, HeLa cells
endogenous Bub1, sequence (O43683 whole entry): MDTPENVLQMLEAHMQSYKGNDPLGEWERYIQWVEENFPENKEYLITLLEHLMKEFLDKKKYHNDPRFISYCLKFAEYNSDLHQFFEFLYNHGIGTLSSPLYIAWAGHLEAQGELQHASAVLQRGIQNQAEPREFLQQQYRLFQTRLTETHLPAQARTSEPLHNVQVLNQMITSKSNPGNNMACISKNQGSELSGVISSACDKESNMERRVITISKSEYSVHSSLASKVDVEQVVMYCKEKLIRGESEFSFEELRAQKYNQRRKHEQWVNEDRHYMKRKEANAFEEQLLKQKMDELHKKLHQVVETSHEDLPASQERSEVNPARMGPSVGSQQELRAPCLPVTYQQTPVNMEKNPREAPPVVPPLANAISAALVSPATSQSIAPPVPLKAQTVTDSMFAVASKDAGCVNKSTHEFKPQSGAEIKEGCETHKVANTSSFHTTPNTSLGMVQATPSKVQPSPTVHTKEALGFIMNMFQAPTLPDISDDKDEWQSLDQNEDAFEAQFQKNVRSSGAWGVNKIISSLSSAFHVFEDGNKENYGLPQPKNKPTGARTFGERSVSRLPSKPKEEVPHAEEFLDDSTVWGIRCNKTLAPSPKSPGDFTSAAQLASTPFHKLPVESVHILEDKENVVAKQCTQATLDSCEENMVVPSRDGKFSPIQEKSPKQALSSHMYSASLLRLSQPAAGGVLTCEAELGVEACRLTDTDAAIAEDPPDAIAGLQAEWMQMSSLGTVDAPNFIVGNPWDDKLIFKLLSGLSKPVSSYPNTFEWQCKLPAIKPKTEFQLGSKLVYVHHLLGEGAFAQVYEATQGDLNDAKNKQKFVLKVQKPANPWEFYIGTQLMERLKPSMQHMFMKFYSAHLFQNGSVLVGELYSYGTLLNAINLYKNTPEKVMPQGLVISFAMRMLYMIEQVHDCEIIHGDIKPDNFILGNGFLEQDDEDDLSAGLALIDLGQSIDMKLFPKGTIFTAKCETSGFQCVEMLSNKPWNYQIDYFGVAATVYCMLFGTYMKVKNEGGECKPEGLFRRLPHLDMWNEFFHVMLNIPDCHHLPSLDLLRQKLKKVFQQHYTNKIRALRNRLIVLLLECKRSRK

T1 sequence (O43683 whole entry): as above

- binding result [1]: no binding
B1: purified recombinant His-PKM2 (wild type) (enzyme)
chain: not shown
notes: Expressed in bacteria and purified; unphosphorylated; also called WT PKM2; WT His-PKM2

- binding result [2]: no binding
B2: endogenous PKCζ (enzyme, human, UniProt Q05513 1-592, looked up)
chain: MPSRTGPKMEGSGGRVRLKAHYGGDIFITSVDAATTFEELCEEVRDMCRLHQQHPLTLKWVDSEGDPCTVSSQMELEEAFRLARQCRDEGLIIHVFPSTPEQPGLPCPGEDKSIYRRGARRWRKLYRANGHLFQAKRFNRRAYCGQCSERIWGLARQGYRCINCKLLVHKRCHGLVPLTCRKHMDSVMPSQEPPVDDKNEDADLPSEETDGIAYISSSRKHDSIKDDSEDLKPVIDGMDGIKISQGLGLQDFDLIRVIGRGSYAKVLLVRLKKNDQIYAMKVVKKELVHDDEDIDWVQTEKHVFEQASSNPFLVGLHSCFQTTSRLFLVIEYVNGGDLMFHMQRQRKLPEEHARFYAAEICIALNFLHERGIIYRDLKLDNVLLDADGHIKLTDYGMCKEGLGPGDTTSTFCGTPNYIAPEILRGEEYGFSVDWWALGVLMFEMMAGRSPFDIITDNPDMNTEDYLFQVILEKPIRIPRFLSVKASHVLKGFLNKDPKERLGCRPQTGFSDIKSHAFFRSIDWDLLEKKQALPPFQPQITDDYGLDNFDTQFTSEPVQLTPDDEDAIKRIDQSEFEGFEYINPLLLSTEESV

- binding result [3]: no binding
B3: endogenous PKM1 (enzyme)
chain: not shown
notes: Looked for in Bub3-Bub1 immunoprecipitates
